Assay results taken from patent US10654918B2, “Inflammatory disease diagnosis and methods of treatment using down-regulators of lipopolysaccharide-responsive beige-like anchor” (University of South Florida, priority 2013, dated 2020).

Columns and labels:
Format in all cases: cell-based, human
Raji cells = test: Cell surface CVID and TLR4 receptors on LRBA WT and LRBA KD Raji cells (flow cytometry)
Text: LRBA is an important vesicle trafficking regulator (Wang, et al., Identification of a novel lipopolysaccharide-inducible gene with key features of both A kinase anchor proteins and chs1/beige proteins. 2001. J Immunol 166: 4586-4595; Cullinane, et al., The BEACH Is Hot: A LYST of Emerging Roles for BEACH-Domain Containing Proteins in Human Disease. 2013. Traffic) and may function as a master regulator of multiple CVID receptors. To test this, LRBA WT and LRBA KD Raji cells were stimulated with LPS, and the cell surface levels of CVID receptors and TLR4 were analyzed by flow cytometry. BD FACSelect Multicolor Panel Designer was used to search antibodies and build up the panel for multiple color cytometry for LSRII FACS machine. Fluorophores directly conjugated antibodies against cell surface CVID proteins were used: CD19-PerCP-Cy5.5, CD2O-PE-Cy7, CD21-V450, BAFFR-PE, TACI-APC, and CD81-APC-H7. Two panels were used when use live/dead discrimination with DAPI […] or 7AAD (overlap with V450). The standard staining procedures were followed and 20,000 to half million cells were acquired. Data acquisition was performed using FACS LSRII flow cytometers and analyzed using FACSDiva version 6.1.2.

Raji B cells [1] = test: Cytokines of Raji and Raji-9 cells treated with LPS (ELISA, CBA)
Procedure: FIG. 21 are graphs showing knockdown of LRBA increases the TNFα levels in Raji B (Burkitt's lymphoma) cells. Raji B cells and Raji-9 (stably transfected with shRNA plasmid against LRBA) B cells were treated with LPS (1 μg/ml). The TNFa concentrations were measured by Human TNFα DuoSet ELISA kit (R&D) following the manufacture's instruction. A. Culture supernatant; B. Cell lysate. #=p<0.07, *=p<0.05, **=p<0.005.
FIGS. 48(A)-(I). Knockdown of LRBA influences the levels of cytokines. A. Raji cells (LRBA WT or KD) were seeded in a 24 well plate wells and stimulated with LPS for 15 min (1), 30 min (2) and 1 hr (3) with 0.26 million cells in each well or for 2 h (4), 4 h (5) and 24 h (6) with 0.2 million cells in each well, 0.2 million of cells were plated in each well. ELISA and CBA assays of TNFα and IL-10. Cells were treated as in A. 0.2×10^6 cells, timepoint. 500 uL total volume medium. Duoset ELISA human TNF-a kit protocol was followed for cell culture supernatant. Blues: Raji (♦); Red: Raji9 (▪). Data are representative of 2 to 5 separate experiments.
Cell culture supernatants were directly used to detect human Th1 and Th2 cytokines (IL-2, IL-4, IL-5, IL-6, IL-10, TNFα and IFN-γ) using the human Th1/Th2 cytokine bead-array kit (BD Biosciences, San Jose, Calif.) according to the manufacturer's instructions. The TNF[…] concentrations were also measured by Human TNF[…] DuoSet ELISA kit (R&D, Catalog #DY210).

Raji B cells [2] = test: Viable cell count of Raji B cells and Rajisi9 B cells; conditions: 10 cells per well, 11 days
Procedure: FIG. 20 is a graph showing knockdown of LRBA promotes B cell proliferations. Raji B cells and Rajisi9 B cells (Raji B cells stably transfected with shRNA plasmid against LRBA) were culture on a 96 well plate with 10 cells per well for 11 days. Viable cells were counted by the Trypan blue live/dead discrimination method with a Hemocytometer.
Raji B cells and Rajisi9 B cells (Raji B cells stably transfected with shRNA plasmid against LRBA) were cultured in a 96 well plate with 10 cells per well for 9 days. Blockage of LRBA promotes THP1 cell proliferation. THP1 cells (human acute monocytic leukemia cell line) were cultured in 100 μl of RPMI1640 media with or without human LRBA polyclonal IgG antibody at 0.67 μg/ml or the same amount of human actin polyclonal IgG antibody on a 96 well plate with 10 cells per well for 9 days. Viable cells were counted by the trypan blue live/dead discrimination method with a hemocytometer.

Raji and Raji9 cells = test: Annexin V apoptosis assay after infection with adenoviruses or Gram-negative bacteria; conditions: 24 hrs after infection with adenoviruses or Gram-negative bacteria
Procedure: FIGS. 49(A) through (B) are graphs showing cells with LRBA knockdown cannot fight viral and bacterial infections efficiently. Half million of Raji and Raji9 cells were infected with adenoviruses at 100 multiplicity of infection (MOI) or 50 μl of Gram-negative bacteria from overnight culture. After 24 hours of incubation at 37° C., Apoptosis was detected by Annexin V-PE and 7-AAD. Cells that were double negative (left lower quadrant) were viable, Annexin only positive cells (right lower quadrant) were early phase of apoptosis or other cell death, and double positive cells (right upper quadrant) were end stage apoptosis or dead. ****p<9E-05, *p<0.007.
In order for pathogens to efficiently spread to neighboring cells and evade the immune cells, and/or gain nutrients, one prominent strategy of many bacterial pathogens is to cause host cell death (31). On another hand, the host cell, first will try to kill the evaded pathogens. As such, cell death may be used as a hallmark of immunodeficiency. […] It is hypothesized that Raji cells with LRBA knockdown can serve as an immunodeficiency in vitro model, i.e. they cannot fight pathogens efficiently when compared to wild type cells, manifested as more cell death.

[3] = Raji cell surface, LPS stimulated, Knockdown

B1: LRBA shRNA: shRNA plasmid against LRBA; targeted LRBA sequence SEQ ID No. 15 GGGATATTGTAGAAACTGTCTTT (nucleic acid)
sense: GGGATATTGTAGAAACTGTCTTTTTCAAGAGAAAAGACAGTTTCTACAATATCCCTTTTTT
antisense: CCCTATAACATCTTTGACAGAAAAAGTTCTCTTTTCTGTCAAAGATGTTATAGGGAAAAAA
BAFFR Median Intensity (Raji cells; [3]): 4198.00 ± 496.75 arbitrary fluorescence intensity units
BAFFR Percentage (Raji cells; [3]): 90.83 ± 0.93%
CD19 Median Intensity (Raji cells; [3]): 5830.17 ± 159.95 arbitrary fluorescence intensity units
CD19 Percentage (Raji cells; [3]): 98.57 ± 0.28%
CD20 Median Intensity (Raji cells; [3]): 29541.25 ± 332.06 arbitrary fluorescence intensity units
CD20 Percentage (Raji cells; [3]): 99.18 ± 0.04%
CD21 Median Intensity (Raji cells; [3]): 1659.50 ± 72.48 arbitrary fluorescence intensity units
CD21 Percentage (Raji cells; [3]): 55.08 ± 5.00%
TACI Median Intensity (Raji cells; [3]): 1813.50 ± 412.89 arbitrary fluorescence intensity units
TACI Percentage (Raji cells; [3]): 7.38 ± 1.49%
TLR4 Median Intensity (Raji cells; [3]): 11204.60 ± 2171.10 arbitrary fluorescence intensity units
TLR4 Percentage (Raji cells; [3]): 31.27 ± 11.42%
BAFFR Median Intensity fold (Raji cells; Wild type vs Knockdown): 0.81↑
BAFFR Percentage fold (Raji cells; Wild type vs Knockdown): 0.96↑
CD19 Median Intensity fold (Raji cells; Wild type vs Knockdown): 1.23↓
CD19 Percentage fold (Raji cells; Wild type vs Knockdown): 1.00
CD20 Median Intensity fold (Raji cells; Wild type vs Knockdown): 1.21↓
CD20 Percentage fold (Raji cells; Wild type vs Knockdown): 1.00
CD21 Median Intensity fold (Raji cells; Wild type vs Knockdown): 0.96↑
CD21 Percentage fold (Raji cells; Wild type vs Knockdown): 0.49↑
TACI Median Intensity fold (Raji cells; Wild type vs Knockdown): 1.33↓
TACI Percentage fold (Raji cells; Wild type vs Knockdown): 4.07↓
TLR4 Median Intensity fold (Raji cells; Wild type vs Knockdown): 1.04
TLR4 Percentage fold (Raji cells; Wild type vs Knockdown): 1.82↓
TNFα levels in cell culture supernatants and cell lysates (ELISA) (Raji B cells [1]; LPS stimulation for 15 min to 24 h, vs untransfected Raji B cells): significantly increased
secreted levels of IL-10 (CBA) (Raji B cells [1]; Raji cells, LPS): significantly increased
secreted levels of TNFα (CBA) (Raji B cells [1]; Raji cells, LPS): significantly increased
B cell proliferations (viable cells, Trypan blue) (Raji B cells [2]): promotes
dead cells or apoptotic cells (Annexin V-PE, 7-AAD) (Raji and Raji9 cells): more dead cells or apoptotic cells
